In patent US20240010747A1, “ANTI-MRP4 (ENCODED BY ABCC4 GENE) ANTIBODIES AND USES THEREOF” (Kenjockety Biotechnology, Inc., priority 2020, published 2024):
Positions count from the first letter of the chain named.

T1: human ABCC4 (Homo sapiens, UniProt O15439)
T1 construct: expressed in transfected cells
T1 sequence (O15439 1-1325): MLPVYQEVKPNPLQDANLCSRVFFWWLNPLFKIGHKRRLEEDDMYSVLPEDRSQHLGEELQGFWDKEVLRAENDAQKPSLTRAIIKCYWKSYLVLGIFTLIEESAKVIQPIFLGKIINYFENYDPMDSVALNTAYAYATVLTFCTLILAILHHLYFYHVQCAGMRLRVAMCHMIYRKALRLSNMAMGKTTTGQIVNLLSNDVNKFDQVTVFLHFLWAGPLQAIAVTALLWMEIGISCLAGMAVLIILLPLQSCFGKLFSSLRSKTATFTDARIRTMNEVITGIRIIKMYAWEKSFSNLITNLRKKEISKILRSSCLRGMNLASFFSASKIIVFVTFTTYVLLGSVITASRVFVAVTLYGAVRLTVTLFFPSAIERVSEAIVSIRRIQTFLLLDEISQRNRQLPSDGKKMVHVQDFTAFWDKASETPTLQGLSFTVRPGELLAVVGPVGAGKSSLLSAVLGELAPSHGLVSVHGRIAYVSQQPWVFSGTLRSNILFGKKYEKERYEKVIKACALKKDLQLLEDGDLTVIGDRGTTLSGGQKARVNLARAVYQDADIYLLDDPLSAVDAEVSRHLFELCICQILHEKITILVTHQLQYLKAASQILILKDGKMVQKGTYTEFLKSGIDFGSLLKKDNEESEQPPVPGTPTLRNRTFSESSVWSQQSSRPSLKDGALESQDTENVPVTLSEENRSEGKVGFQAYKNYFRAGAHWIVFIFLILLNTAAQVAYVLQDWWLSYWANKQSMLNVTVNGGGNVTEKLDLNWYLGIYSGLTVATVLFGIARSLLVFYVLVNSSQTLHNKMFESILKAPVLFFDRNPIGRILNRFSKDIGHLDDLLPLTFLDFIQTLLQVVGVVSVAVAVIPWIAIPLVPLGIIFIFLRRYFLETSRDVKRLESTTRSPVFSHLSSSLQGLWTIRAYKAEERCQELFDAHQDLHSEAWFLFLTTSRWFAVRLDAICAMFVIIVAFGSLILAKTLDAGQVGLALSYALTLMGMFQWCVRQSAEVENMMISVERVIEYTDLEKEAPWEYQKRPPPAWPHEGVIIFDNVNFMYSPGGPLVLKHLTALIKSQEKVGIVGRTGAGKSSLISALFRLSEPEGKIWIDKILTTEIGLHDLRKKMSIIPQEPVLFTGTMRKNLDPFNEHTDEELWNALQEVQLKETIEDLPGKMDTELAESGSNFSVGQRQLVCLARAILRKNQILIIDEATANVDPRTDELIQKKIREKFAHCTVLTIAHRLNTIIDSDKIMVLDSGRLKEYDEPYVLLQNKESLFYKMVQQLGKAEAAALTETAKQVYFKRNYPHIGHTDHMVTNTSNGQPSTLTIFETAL

T2: human ABCC4 (human, UniProt O15439 1-1325)
T2 construct: Expressed on murine C6 cells stably transfected with human ABCC4 cDNA with C-terminal FLAG tag; also called MRP4; Multidrug resistance protein 4; not shown: C-terminal fused FLAG tag
T2 sequence: T1 sequence (O15439 1-1325)

B1: C4.1054 (antibody, V domains shown)
VH: QVQLLQSGAALVKPGASVKMSCKPSGYTFTDYWVSWVKQSHGKSLEWIGEIYPNNGATNFNEKFKGKATLTVDKSTSTAYMELSRLTSEDSAIYYCPSRKYGYNWNFDYWGQGTMVTVSS
VL: DIVLTQSPALAVSLGQRATISCRARQSVSISRYNLMHWYQQKPGQQPKVLIYRASNLASGIPARFSGSGSGTDFTLTIDPVQADDIATYYCQQSRDSPWTFGGGTKLELK
B2: C4.925: anti-ABCC4 antibody raised in rats; VH SEQ ID NO: 3, VL SEQ ID NO: 126 (antibody, V domains shown)
VH: EVQLVESGGGLVQPGRSLKLSCAASGFTFSDYYMAWVRQAPTKGLEWVAYINYDGGSTHYGDSVKGRFTISRDNEKSTLYLQMNSLRSEDMATYYCARENYGYNSFDYWGQGASVTVSS
VL: DIQVTQSPASLSASLGETISIECLTSEDISSYLTWYQQKPGKSPHLLIYGANSLQAGVPSRFSGSGSGTQYSLKISSMQPEDEGDYFCQQSYKFPLTFGSGTKLELK
B3: C4.1131 (antibody, V domains shown)
VH: EVKLVESDGGLVQPRKSLKLSCAASGFTFTDYYMAWVRQGPTMGLEWVATISNDGSTKYYRDSVKGRFTLSRDNAKTTLHLQMDSLRSEDTATYYCARLTIRYKGVMDAWGQGASVTVSS
VL: DVVMTQSPSHLAASPGESVSINCKASKNIYKYLAWYQQKPGKTNKLLIYSGSTLQSGTPSRFSGSGSGSDFTLTIRNLEPEDFGLYYCQHHNEYPPTFGGGTKLEIK
B4: C4.1134 (antibody, V domains shown)
VH: EVQLVESDGGLVQPGRSLKLSCAASGFTFSDFYMAWVRQAPTKGLEWIATISHDGRNTFYRDSVKGRFTISRDNAKRALYLQMDSLRSEDTATYYCASLTTRYKGVMEAWGQGASVTVSS
VL: B3 VL
B5: C4.1152 (antibody, V domains shown)
VH: B4 VH with Q3K, T50S, F59Y, A78T, T101A, E108G, A114T, S115L
VL: B3 VL

What follows are molecules tested against T1, human ABCC4 (assay: Flow cytometry (FACS) binding to C6 cells stably transfected to express human ABCC4 (different experiment, Table 4)). Conditions: C6 cells stably transfected to express human ABCC4, FACS; different experiment, Table 4.
In short: (§1)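 Murine C6 cells stably expressing FLAG-tagged human or cynomolgus ABCC4 incubated 30 min on ice with antibodies, either 5 ug/mL or serially diluted from 100 ug/mL, in PBS+2% FBS+0.02% azide. Detection with PE anti-human IgG F(ab′)2 by flow cytometry; EC50 at half-maximal MFI; negative below background, positive >3× background.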

| Human ABCC4 binding | Molecule |
| --- | --- |
| + (Positive (+)=MFI>3× background level) | B1 |
| + (Positive (+)=MFI>3× background level) | B2 |
| + (Positive (+)=MFI>3× background level) | B3 |
| + (Positive (+)=MFI>3× background level) | B4 |
| + (Positive (+)=MFI>3× background level) | B5 |

Same assay, conditions: Table 4 study, stated in words

| binding to human ABCC4 expressed on cell surface | Molecule |
| --- | --- |
| bind to both human and cynomolgus ABCC4 | B1 |
| bind to both human and cynomolgus ABCC4 | B3 |
| bind to both human and cynomolgus ABCC4 | B4 |
| bind to both human and cynomolgus ABCC4 | B5 |

The molecules below were run against T2, human ABCC4 (assay: FACS, C6 cells stably expressing human ABCC4; + = MFI>3x background). Conditions: not given.
Procedure: (§2) Antibody binding to cells was evaluated by flow cytometry. Murine C6 cells stably transfected to express human or cynomolgus ABCC4 were washed once in flow cytometry buffer (PBS+2% FBS+0.02% sodium azide), resuspended at 2×10\hat{ }6 cells/mL in flow cytometry buffer, and dispensed into 96-well microtiter plates at 0.1 mL/well. Recombinant antibodies were added to cells at 5 ug/mL for initial binding confirmation, or serially diluted from 100 ug/mL in flow cytometry buffer. After incubating cells on ice for 30 min, cells were washed twice with flow cytometry buffer. Bound antibody was detected with PE-labeled F(ab′)₂ fragment goat anti-human IgG (Jackson ImmunoResearch) and evaluated on an Attune N×T flow cytometer. EC50 is calculated to be the concentration of antibody that gives half maximal response.

| binding result | Molecule |
| --- | --- |
| binds | B1 |
| binds | B3 |
| binds | B4 |
| binds | B5 |

What follows are molecules tested on cynomolgus ABCC4 (assay: Flow cytometry (FACS) binding to C6 cells stably transfected to express cynomolgus ABCC4 (different experiment, different C6.cC4 cell line, Table 4)). Conditions: Table 4 study, stated in words.
Parameters: key to Cynomolgus ABCC4 binding: Negative (−)=Rmax (MFI) below background level; Positive (+)=MFI>3× background level
In short: as §1

| Molecule | binding to cynomolgus ABCC4 expressed on cell surface |
| --- | --- |
| B1 | bind to both human and cynomolgus ABCC4 |
| B3 | bind to both human and cynomolgus ABCC4 |
| B4 | bind to both human and cynomolgus ABCC4 |
| B5 | bind to both human and cynomolgus ABCC4 |

Same assay, conditions: different C6.cC4 cell line, C6 cells stably transfected to express cynomolgus ABCC4, FACS; Table 4

| Molecule | Cynomolgus ABCC4 binding |
| --- | --- |
| B1 | + (Positive (+)=MFI>3× background level) |
| B2 | − |
| B3 | + (Positive (+)=MFI>3× background level) |
| B4 | + (Positive (+)=MFI>3× background level) |
| B5 | + (Positive (+)=MFI>3× background level) |

Each molecule was assayed on cynomolgus ABCC4 (assay: Flow cytometry (FACS) binding to C6 cells stably transfected to express cynomolgus ABCC4 (Table 3 study)). Conditions: C6 cells stably transfected to express cynomolgus ABCC4, FACS; Table 3.
Parameters: key to Cynomolgus ABCC4 binding: Negative (−) is defined as maximum response (Rmax(MFI)) below background level; Positive (+) is defined as MFI>1000
Procedure: (§3) Binding titration of recombinant antibodies to ABCC4 transfectants was performed by serial dilution of antibodies from about 666 nM. Diluted antibody in flow cytometry buffer was incubated with cells on ice for 30 min. After 2 washes with flow cytometry buffer, bound antibody was detected with PE-labeled F(ab′)2 fragment goat anti-human IgG (Jackson ImmunoResearch) diluted 1:200 in flow cytometry buffer and incubated with cells for 20 min on ice. After 2 washes with flow cytometry buffer fluorescence was measured on an Attune N×T flow cytometer. Data were analyzed with GraphPad Prism 8.0 software to determine EC50's.
(§4) Human embryonic kidney HEK 293T cells and murine C6 (ATCC CCL-107) were transfected with human or cynomolgus ABCC4 cDNA with C-terminal fused FLAG tag in a pMONO-hygro vector with Lipofectamine 3000 (Invitrogen #L3000001). The cells were treated with 0.2 mg/ml and 0.5 mg/ml hygromycin respectively for about 2 weeks while cultivated in DMEM and 10% FBS with 0.2 mg/ml hygromycin and 0.5 mg/ml hygromycin, respectively. The cells were washed with PBS, and stained with […] of anti-FLAG-PE after fixing and permeablization. Clones expressing ABCC4 were single-cell sorted into 200 μl DMEM with 10% FBS using a BD Aria FACS machine and cultivated in 96 well plates using standard techniques in an incubator at 37° C. and 5% CO 2. Two weeks later clones expressing high levels of ABCC4 were screened and amplified.
as §2, with “2×10^6” for “2×10\hat{ }6”, “F(ab′)2” for “F(ab′)₂”
(§5) Table 3 lists the following characteristics of the rat anti-ABCC4 antibodies tested: binding to C6 cells stably transfected to express human ABCC4 measured by FACS and binding to C6 cells stably transfected to express cynomolgus ABCC4 measured by FACS. Negative (−) is defined as maximum response (Rmax(MFI)) below background level. Positive (+) is defined as MFI>1000.

| Molecule | Cynomolgus ABCC4 binding |
| --- | --- |
| B2 | − |

The molecules below were run against T1, human ABCC4 (assay: Flow cytometry (FACS) binding to C6 cells stably transfected to express human ABCC4 (Table 3 study)). Conditions: C6 cells stably transfected to express human ABCC4, FACS; Table 3.
Procedure: as §3, §4
as §2, with “2×10^6” for “2×10\hat{ }6”, “F(ab′)2” for “F(ab′)₂”
as §5

| Human ABCC4 binding | Molecule |
| --- | --- |
| + (Positive (+) is defined as MFI>1000) | B2 |
